Laboratory results: patent publication US20090004163, “METHOD OF ENHANCING PROLIFERATION AND/OR HEMATOPOIETIC DIFFERENTIATION OF STEM CELLS” (THE CHILDREN'S MEDICAL CENTER CORPORATION, published 2009)

Target: Cdx4 F170L (kggtl240) (Danio rerio, UniProt A8KBT9 A8KBT9:1-270, F170L)
Test: EMSA; mutation prevents binding to cdx4 consensus site
Conditions: tags: TNT SP6 IVT (Promega)

Cdx4 F170L (kggtl240), sequence (A8KBT9 entry or part of it F170L | F170L F170L, one chain of several): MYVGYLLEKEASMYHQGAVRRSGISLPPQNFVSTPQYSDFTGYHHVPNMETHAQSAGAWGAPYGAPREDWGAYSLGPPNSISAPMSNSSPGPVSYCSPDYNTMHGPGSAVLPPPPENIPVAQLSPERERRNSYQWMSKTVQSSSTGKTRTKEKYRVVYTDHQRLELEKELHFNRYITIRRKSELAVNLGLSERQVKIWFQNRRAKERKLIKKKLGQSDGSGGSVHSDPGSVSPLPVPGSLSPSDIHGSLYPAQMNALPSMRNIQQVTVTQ

B1: consensus cdx binding site probe (dsDNA)
DNA 1: GAGAAATTTATATTGT
DNA 2: ACAATATAAATTTCTC
binding result: no binding
